In assay [1] the target is human IL-8 (human). As to the kind of experiment: SPR, pH 7.4, 37C. On the technique in general: Surface plasmon resonance follows binding to a sensor surface in real time, without labels.
Assay [2] concerns the target human IL-8 (human). The assay can be described thus: SPR, pH 5.8, 37C.
Assay [3] concerns the target human IL-8 (human). The assay can be described thus: SPR, pH 7.4.
The target of assay [4] is human IL-8 (human). As to the kind of experiment: SPR, pH 7.4. The source holds these as a separate data set.
In assay [5] the target is human IL-8 (human). As to the kind of experiment: SPR, pH 5.8.
Assay [6] deals with human IL-8 (human). As to the kind of experiment: SPR, pH 5.8. The source holds these as a separate data set.
Assay [7] addresses human IL-8 (human). As to the kind of experiment: SPR, pH 5.8, 37C. This is another data set of the same source.

Residue numbers refer to the chain shown, from its start.

Chain of human IL-8 (human) (chain, as listed by the source): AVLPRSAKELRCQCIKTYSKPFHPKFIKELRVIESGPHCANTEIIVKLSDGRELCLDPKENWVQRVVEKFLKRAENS

B1: H89/L16 (antibody, V domains shown)
VH: QVQLVESGGGLVQPGGSLRLSCAASGFTFSDYYLSWVRQAPGKGLEWVGLIRNKANGYTREYSASVKGRFTISRDDSKNSLYLQMSSLKTEDTAVYYCARENHRYDVELAYWGQGTLVTVSS
VL: DIQMTQSPSSLSASVGDRVTITCRASEIIYSYLAWYQQKPGKAPKLLIYNAKTHADGVPSRFSGSGSGTDFTFTISSLQPEDIATYYCQHHFGFPRTFGQGTKVEIKR
On to B1, for which the values for the Kd with human IL-8 [1] and with human IL-8 [2] were 0.699 nM and 35.1 nM, respectively.

B2: Hr9/L16 (antibody, V domains shown)
VH: B1 VH with H103Y
VL: B1 VL
Turning to B2, the Kd with human IL-8 [1] was found to be 0.108 nM; with human IL-8 [2], 5.04 nM.

B3: H89/L118 (antibody, V domains shown)
VH: B1 VH
VL: B1 VL with N50H, Q89K
With B3, the Kd came to 0.17 nM with human IL-8 [3]; 0.172 nM with human IL-8 [4]; 49 nM with human IL-8 [5]; 48.8 nM with human IL-8 [6]; 31.8 nM in the assay with human IL-8 [7]; 21.5 nM in the assay with human IL-8 [2].

B4: H1009/L395 (antibody, V domains shown)
VH: B1 VH with A55D, G57Y, Y58H, R60P, Q84T, S87D
VL: B1 VL with N50K, Q89K
Consider B4, for which the Kd in the assay with human IL-8 [3] is 0.071 nM; with human IL-8 [5] it was 87 nM.

One may read the Kd as a measure of binding affinity in units of concentration.
